How the values were obtained:
[1] = target: PARP1 - Nuc165 complex (Alexa488-labelled PARP1 bound to a recombinant nucleosome with DNA linker ends of 7 and 11 base pairs) (UniProt P09874); assay: FRET or BRET; Alexa647-HPF1 (0.6-10,000 nM, […] dilutions) titrated into Alexa488-PARP1 premixed with Nuc165 (20 nM) and DMSO (control, no olaparib); binding buffer 50 mM Tris-HCl pH 8.0, 50 mM NaCl, 1 mM MgCl2, 0.1 mM EDTA, 0.01% IGEPAL; 384-well plate
[2] = target: PARP1 - Nuc165 complex (Alexa488-labelled PARP1 bound to a recombinant nucleosome with DNA linker ends of 7 and 11 base pairs) (UniProt P09874); assay: FRET or BRET; as a1 but with olaparib (1 uM): Alexa647-HPF1 titrated into Alexa488-PARP1 premixed with Nuc165 (20 nM) and olaparib; binding buffer

PARP1 - Nuc165 complex (Alexa488-labelled PARP1 bound to a recombinant nucleosome with DNA linker ends of 7 and 11 base pairs), sequence (P09874 whole entry, looked up, one chain of several): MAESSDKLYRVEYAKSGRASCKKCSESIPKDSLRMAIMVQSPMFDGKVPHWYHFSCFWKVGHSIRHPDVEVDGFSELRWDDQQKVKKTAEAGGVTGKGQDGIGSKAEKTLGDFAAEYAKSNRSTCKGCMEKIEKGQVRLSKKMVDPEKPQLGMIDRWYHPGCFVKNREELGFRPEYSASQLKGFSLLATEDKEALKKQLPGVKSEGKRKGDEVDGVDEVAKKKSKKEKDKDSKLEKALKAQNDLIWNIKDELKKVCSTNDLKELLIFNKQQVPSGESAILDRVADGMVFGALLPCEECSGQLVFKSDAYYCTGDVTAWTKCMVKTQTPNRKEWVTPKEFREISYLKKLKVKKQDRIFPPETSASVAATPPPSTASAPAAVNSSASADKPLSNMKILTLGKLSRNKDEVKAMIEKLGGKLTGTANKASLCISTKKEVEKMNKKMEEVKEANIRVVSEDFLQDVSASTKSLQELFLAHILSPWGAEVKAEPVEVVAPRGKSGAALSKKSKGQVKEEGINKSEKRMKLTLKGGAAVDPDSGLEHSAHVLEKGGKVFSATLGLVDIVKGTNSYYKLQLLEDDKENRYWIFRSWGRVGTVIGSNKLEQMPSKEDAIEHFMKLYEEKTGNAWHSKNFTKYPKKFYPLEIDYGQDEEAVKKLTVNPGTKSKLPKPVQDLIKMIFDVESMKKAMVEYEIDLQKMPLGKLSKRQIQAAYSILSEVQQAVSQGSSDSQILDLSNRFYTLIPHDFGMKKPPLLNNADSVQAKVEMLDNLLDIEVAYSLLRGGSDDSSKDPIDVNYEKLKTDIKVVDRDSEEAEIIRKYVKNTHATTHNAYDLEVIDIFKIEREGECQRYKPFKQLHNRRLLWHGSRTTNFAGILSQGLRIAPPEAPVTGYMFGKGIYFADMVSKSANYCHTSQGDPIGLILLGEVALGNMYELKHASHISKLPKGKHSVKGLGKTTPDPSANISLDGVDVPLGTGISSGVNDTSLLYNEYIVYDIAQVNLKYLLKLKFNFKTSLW

B1: Histone PARylation factor 1 (HPF1), labelled with Alexa647 (natural protein)
chain: LRKEVENHYKLSLPEDFYHFWKFCEELDPEKPSDSLSASLGLQLVGPYDILAGKHKTKKKSTGLNFNLHWRFYYDPPEFQTIIIGDNKTQYHMGYFRDSPDEFPVYVGINEAKKNCIIVPNGDNVFAAVKLFLTKKLREITDKKKINLLKNIDEKLTEAARELGYSLEQRTVKMKQRDKKVVTKTFHGAGLVVPVDKNDVGYRELPETDADLKRICKTIVEAASDEERLKAFAPIQEMMTFVQFANDECDYGMGLELGMDLFCYGSHYFHKVAGQLLPLAYNLLKRNLFAEIIEEHLANRSQENIDQLAA
modifications: Alexa647 C2 maleimide label (extent of labeling typically 50-100%)
B1 showed a Kd [1] of 790 nM and a Kd [2] of 229 nM.
